Measured values published in publication PMC12604781 (PLOS Pathogens, 2025).

How the values were obtained:
pcGAS [1] = type: biochemical, porcine; conditions: pH 7.5
[2] = molecular target: SUMO-HSV-1 peptide AB (herpes simplex virus type 1 (HSV-1)); test: ITC
hcGAS = hcGAS (Homo sapiens? (human), UniProt Q8N884 1-522); test: EMSA; no US1; EMSA: 2.5 uM ISD45, DNA:protein molar ratio 1:0 to 1:32, 0.8% agarose, 40 mM Tris-HCl pH 9.2 running buffer, 110 V, ethidium bromide; binding buffer and temperature not stated (protein stock 20 mM Tris-HCl pH 7.5, 150 mM NaCl, 5 mM DTT); conditions: protein: recombinant; tags: N-terminal Flag, C-terminal HA; His6-SUMO removed; blunt
hcGAS, sequence (Q8N884 whole entry): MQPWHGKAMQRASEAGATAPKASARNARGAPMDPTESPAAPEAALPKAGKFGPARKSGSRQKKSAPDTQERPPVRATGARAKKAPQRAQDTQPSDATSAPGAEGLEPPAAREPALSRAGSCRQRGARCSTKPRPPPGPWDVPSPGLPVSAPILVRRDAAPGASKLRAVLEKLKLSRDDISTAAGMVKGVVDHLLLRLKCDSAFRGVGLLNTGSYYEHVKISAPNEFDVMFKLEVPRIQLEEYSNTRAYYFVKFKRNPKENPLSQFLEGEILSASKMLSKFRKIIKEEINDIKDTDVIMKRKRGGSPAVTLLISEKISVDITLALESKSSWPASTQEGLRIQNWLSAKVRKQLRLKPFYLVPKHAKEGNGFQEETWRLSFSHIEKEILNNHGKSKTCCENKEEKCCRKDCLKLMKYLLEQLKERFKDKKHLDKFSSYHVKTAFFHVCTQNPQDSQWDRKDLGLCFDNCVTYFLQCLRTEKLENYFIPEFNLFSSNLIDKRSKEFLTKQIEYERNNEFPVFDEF

mcGAS = mcGAS (Mus musculus? (mouse), UniProt Q8C6L5 1-507); test: as above; conditions: protein: recombinant; tags: N-terminal Flag, C-terminal HA; His6-SUMO removed; chain copies: 2; blunt
mcGAS, sequence (Q8C6L5 whole entry): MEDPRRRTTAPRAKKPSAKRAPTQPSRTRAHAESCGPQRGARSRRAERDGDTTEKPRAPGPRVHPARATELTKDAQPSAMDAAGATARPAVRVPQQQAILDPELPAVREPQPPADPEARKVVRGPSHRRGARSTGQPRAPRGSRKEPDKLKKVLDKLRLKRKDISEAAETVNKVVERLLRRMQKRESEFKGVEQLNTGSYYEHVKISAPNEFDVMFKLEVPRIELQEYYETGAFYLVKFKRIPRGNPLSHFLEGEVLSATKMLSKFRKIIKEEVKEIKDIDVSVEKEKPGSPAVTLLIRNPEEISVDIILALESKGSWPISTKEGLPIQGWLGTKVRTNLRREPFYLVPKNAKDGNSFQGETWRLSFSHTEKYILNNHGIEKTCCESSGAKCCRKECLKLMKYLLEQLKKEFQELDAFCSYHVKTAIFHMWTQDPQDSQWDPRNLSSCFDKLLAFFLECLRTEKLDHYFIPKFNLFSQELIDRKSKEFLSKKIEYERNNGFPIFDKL

pcGASNT = molecular target: T1, pcGASNT (Sus scrofa? (porcine), UniProt I3LM39 1-134); test: as above; conditions: protein: recombinant; tags: Flag/HA double tag vector; His6-SUMO; blunt
T1 sequence: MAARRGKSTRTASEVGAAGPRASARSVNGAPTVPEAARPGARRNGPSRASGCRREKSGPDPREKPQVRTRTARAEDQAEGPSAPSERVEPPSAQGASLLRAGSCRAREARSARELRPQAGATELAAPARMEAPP

pcGASCT = molecular target: T2, pcGASCT (Sus scrofa? (porcine), UniProt I3LM39 145-495); test: as above; conditions: protein: recombinant; tags: Flag/HA double tag vector; His6-SUMO; blunt
T2 sequence: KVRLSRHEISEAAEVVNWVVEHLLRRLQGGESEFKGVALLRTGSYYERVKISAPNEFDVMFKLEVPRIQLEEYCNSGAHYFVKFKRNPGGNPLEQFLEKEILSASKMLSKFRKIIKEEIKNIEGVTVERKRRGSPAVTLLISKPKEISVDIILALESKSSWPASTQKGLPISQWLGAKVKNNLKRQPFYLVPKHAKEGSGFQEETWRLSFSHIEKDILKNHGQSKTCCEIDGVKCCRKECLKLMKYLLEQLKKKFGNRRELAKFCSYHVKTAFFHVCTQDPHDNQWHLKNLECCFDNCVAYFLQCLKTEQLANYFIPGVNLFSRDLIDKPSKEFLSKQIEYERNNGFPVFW

pcGAS [3] = molecular target: T3, pcGAS (Sus scrofa? (porcine), UniProt I3LM39 1-495); test: as above; conditions: protein: recombinant; tags: N-terminal Flag, C-terminal HA; His6-SUMO removed; blunt
T3 sequence: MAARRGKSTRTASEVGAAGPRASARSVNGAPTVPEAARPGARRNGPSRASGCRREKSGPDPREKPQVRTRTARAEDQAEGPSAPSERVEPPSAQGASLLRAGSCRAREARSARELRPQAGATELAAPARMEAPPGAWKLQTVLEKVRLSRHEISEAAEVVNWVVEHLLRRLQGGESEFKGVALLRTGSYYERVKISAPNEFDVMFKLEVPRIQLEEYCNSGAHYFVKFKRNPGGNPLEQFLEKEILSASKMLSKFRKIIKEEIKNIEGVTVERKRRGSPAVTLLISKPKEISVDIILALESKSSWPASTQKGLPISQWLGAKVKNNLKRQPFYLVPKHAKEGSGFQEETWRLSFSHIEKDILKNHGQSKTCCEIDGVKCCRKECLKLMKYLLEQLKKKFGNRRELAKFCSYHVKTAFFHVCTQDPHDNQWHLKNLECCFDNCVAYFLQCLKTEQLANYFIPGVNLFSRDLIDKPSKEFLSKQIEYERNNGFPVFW

PRV US1 = molecular target: T4, PRV US1 (pseudorabies virus, UniProt A0AAX7FDV8 1-364); test: EMSA; molar ratio 0-16; EMSA: 2.5 uM ISD45, DNA:protein molar ratio 1:0 to 1:32, 0.8% agarose, 40 mM Tris-HCl pH 9.2 running buffer, 110 V, ethidium bromide; binding buffer and temperature not stated (protein stock 20 mM Tris-HCl pH 7.5, 150 mM NaCl, 5 mM DTT); conditions: protein: recombinant; tags: His6-SUMO removed; blunt
T4 sequence: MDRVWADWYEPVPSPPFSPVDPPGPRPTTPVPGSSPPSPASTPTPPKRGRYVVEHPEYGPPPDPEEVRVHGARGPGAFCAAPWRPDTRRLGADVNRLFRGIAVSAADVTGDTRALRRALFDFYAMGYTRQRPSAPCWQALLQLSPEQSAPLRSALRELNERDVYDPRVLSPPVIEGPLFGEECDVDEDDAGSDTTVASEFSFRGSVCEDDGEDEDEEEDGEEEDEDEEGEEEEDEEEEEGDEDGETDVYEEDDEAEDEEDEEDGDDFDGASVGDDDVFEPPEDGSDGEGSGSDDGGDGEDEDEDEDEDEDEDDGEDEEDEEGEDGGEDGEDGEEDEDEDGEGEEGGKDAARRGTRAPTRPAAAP

Q: How did the “effect on cGAS enzymatic activity / cGAMP synthesis” value (pcGAS [1]) turn out when AWKLQT [random peptide] was run?
A: neither peptide A nor peptide B, nor the random peptide inhibited cGAMP synthesis

Q: With “hcGAS^CT (C-terminus, catalytic domain of human cGAS) (domain or fragment)” as the molecule, how does the Kd [2] read?
A: 15.7 µM

Q: Which Kd [2] does the source give for “pcGAS^CT (C-terminus, catalytic domain of porcine cGAS) (domain or fragment)” here?
A: 2.85 µM

B1: ISD45 (dsDNA)
DNA 1: TACAGATCTACTAGTGATCTATGACTGATCTGTACATGATCTACA
DNA 2: TGTAGATCATGTACAGATCAGTCATAGATCACTAGTAGATCTGTA
Q: What does the source list for B1?
A: binding result (hcGAS): binds; binding result (mcGAS): binds; binding result (pcGASNT): binds; binding result (pcGASCT): binds; binding result (pcGAS [3]): binds; binding result (PRV US1): no binding
